Source: the supplement of paper PMC10065799, “High-throughput profiling of sequence recognition by tyrosine kinases and SH2 domains using bacterial peptide display” (eLife, 2023)

How the values were obtained:
AncSZ = assay: phosphorylation enrichment, bacterial display (enrichment ratio); higher = better substrate or ligand; peptides without Tyr show the background
EPHB1 = EPHB1 (UniProt P54762); assay: as above
EPHB2 = EPHB2 (UniProt P29323); assay: as above
FGFR1 = FGFR1 (UniProt P11362); assay: as above
FGFR3 = FGFR3 (UniProt P22607); assay: as above
Fer (mouse) = assay: as above
Fes = Fes (UniProt P07332); assay: as above
Fyn = Fyn (UniProt P06241); assay: as above
Hck = Hck (UniProt P08631); assay: as above
Jak2 = Jak2 (UniProt O60674); assay: as above
MERTK = MERTK (UniProt Q12866); assay: as above
c-Abl (mouse) = assay: as above
c-Src = assay: as above
Grb2 SH2 = Grb2 SH2 (UniProt P62993); assay: SH2 binding enrichment of the phosphorylated peptide, bacterial display (enrichment ratio); higher = better substrate or ligand; peptides without Tyr show the background
SHP2-C SH2 = assay: as above
c-Src SH2 = assay: as above
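Wherever SH2 binding enrichment of the phosphorylated peptide, bacterial display is given: peptide library displayed on the E. coli surface as eCPX fusions, selected cells deep-sequenced, score is each peptide's frequency after selection divided by its frequency in the input.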
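Wherever phosphorylation enrichment, bacterial display is given: 11-residue human phosphosite peptides and single-mutation variants displayed on the E. coli surface, counted by deep sequencing, each peptide's frequency after selection divided by its frequency in the unselected input library; frequency after pTyr selection over input frequency; kinase dosed for 20-30% of maximal phosphorylation in three min.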

Sequence of Jak2 (O60674 whole entry, looked up): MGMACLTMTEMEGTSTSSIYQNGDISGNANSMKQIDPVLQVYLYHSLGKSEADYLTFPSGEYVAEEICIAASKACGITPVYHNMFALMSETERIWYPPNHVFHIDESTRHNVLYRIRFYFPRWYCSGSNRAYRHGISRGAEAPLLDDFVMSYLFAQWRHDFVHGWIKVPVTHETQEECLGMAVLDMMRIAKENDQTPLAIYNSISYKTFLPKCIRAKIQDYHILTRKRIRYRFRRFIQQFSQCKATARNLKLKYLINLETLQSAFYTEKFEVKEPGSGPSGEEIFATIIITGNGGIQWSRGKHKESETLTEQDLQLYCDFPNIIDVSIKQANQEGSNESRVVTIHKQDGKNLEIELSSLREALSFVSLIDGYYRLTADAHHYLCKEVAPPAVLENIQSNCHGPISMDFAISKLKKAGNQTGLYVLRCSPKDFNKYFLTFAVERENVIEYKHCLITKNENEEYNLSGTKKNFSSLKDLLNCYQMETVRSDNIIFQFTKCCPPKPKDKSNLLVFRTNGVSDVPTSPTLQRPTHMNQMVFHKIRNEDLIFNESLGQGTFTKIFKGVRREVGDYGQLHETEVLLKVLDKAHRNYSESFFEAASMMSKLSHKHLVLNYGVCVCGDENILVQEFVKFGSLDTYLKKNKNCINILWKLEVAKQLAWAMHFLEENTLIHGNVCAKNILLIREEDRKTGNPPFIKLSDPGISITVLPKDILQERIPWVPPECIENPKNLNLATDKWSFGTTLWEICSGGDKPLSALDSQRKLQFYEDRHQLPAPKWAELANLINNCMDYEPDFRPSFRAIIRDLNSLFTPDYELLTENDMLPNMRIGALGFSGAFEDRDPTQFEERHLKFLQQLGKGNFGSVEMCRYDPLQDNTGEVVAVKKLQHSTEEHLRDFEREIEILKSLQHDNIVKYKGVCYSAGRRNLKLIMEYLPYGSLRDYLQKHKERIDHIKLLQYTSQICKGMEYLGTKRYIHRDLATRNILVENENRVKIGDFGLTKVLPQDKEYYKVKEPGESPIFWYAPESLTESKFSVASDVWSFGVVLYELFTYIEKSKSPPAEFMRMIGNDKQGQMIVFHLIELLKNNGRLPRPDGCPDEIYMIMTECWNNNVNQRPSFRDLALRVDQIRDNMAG
Sequence of EPHB2 (P29323 whole entry, looked up): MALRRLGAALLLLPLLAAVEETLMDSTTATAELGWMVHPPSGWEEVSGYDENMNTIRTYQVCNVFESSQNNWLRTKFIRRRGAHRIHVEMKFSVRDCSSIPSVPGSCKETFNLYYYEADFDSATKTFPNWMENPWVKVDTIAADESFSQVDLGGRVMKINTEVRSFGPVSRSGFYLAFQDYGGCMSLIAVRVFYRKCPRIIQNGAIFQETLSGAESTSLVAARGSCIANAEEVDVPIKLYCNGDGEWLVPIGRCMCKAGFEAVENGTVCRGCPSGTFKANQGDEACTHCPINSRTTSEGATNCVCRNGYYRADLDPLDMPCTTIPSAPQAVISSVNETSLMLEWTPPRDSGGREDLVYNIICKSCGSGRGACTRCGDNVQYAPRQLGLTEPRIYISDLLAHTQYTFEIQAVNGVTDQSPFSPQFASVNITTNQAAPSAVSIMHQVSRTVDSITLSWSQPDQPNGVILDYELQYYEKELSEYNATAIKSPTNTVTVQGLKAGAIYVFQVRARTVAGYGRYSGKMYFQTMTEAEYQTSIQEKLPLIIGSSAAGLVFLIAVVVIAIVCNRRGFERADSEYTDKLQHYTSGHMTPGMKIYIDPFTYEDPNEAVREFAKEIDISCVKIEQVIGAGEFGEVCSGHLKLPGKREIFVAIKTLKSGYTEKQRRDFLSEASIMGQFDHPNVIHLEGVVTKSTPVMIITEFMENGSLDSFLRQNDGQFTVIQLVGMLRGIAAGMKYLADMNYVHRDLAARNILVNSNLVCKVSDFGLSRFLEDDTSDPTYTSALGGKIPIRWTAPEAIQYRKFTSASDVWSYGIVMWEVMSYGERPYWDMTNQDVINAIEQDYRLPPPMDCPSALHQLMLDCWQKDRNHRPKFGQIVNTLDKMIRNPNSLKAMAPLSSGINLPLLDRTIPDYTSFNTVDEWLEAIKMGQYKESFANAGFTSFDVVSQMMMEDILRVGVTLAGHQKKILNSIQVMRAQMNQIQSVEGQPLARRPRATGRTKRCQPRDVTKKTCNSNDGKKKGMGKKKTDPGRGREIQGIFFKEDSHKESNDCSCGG
Sequence of FGFR1 (P11362 whole entry, looked up): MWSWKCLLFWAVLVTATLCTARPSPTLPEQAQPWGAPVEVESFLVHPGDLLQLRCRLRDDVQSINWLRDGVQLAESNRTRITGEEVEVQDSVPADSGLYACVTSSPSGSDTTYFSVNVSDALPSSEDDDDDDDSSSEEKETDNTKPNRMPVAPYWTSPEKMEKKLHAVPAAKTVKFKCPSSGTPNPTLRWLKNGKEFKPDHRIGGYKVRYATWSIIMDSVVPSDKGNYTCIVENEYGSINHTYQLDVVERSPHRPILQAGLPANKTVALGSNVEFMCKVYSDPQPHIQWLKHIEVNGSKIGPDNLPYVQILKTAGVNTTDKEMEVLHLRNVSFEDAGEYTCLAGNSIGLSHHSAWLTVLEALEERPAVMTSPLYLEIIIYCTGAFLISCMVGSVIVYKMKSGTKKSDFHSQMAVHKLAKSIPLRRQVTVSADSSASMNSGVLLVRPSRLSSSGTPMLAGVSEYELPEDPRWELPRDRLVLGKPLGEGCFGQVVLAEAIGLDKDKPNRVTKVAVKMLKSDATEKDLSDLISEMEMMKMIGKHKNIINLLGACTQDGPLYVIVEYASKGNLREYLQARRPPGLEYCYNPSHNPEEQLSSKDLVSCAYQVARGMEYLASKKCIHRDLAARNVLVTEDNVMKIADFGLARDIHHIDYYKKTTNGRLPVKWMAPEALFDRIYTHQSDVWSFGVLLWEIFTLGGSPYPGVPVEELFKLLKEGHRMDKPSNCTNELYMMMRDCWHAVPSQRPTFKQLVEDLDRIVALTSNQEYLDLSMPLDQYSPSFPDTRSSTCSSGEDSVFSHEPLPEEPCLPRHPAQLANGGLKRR
Sequence of Fyn (P06241 whole entry, looked up): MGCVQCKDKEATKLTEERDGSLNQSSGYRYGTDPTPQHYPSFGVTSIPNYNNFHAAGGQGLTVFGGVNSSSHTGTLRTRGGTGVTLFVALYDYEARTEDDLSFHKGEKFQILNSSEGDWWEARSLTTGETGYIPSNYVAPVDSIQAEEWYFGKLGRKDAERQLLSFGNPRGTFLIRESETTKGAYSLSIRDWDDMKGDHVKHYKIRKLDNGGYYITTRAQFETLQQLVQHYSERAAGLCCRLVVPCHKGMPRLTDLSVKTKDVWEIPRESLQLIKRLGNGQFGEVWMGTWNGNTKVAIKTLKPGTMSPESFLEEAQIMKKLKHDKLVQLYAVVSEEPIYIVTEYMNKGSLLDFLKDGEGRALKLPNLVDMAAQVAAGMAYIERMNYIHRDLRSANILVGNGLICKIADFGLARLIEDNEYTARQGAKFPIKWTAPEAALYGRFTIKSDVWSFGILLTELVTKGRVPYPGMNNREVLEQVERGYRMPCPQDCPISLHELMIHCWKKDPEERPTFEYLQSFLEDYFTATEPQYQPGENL
Sequence of Hck (P08631 whole entry, looked up): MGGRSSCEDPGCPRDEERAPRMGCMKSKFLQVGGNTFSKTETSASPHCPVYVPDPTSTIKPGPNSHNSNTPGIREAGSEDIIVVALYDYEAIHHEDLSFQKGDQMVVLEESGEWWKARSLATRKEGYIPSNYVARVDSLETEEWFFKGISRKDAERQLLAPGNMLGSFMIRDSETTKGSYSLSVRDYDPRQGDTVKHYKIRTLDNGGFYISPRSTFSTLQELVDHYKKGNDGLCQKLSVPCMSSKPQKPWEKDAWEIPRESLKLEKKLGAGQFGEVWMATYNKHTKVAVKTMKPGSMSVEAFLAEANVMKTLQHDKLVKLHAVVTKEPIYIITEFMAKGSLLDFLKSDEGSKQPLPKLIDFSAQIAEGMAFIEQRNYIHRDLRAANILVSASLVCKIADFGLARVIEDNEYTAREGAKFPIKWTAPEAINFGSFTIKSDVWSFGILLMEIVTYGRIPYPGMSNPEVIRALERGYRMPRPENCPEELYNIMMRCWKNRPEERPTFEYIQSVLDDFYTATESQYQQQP
Sequence of FGFR3 (P22607 whole entry, looked up): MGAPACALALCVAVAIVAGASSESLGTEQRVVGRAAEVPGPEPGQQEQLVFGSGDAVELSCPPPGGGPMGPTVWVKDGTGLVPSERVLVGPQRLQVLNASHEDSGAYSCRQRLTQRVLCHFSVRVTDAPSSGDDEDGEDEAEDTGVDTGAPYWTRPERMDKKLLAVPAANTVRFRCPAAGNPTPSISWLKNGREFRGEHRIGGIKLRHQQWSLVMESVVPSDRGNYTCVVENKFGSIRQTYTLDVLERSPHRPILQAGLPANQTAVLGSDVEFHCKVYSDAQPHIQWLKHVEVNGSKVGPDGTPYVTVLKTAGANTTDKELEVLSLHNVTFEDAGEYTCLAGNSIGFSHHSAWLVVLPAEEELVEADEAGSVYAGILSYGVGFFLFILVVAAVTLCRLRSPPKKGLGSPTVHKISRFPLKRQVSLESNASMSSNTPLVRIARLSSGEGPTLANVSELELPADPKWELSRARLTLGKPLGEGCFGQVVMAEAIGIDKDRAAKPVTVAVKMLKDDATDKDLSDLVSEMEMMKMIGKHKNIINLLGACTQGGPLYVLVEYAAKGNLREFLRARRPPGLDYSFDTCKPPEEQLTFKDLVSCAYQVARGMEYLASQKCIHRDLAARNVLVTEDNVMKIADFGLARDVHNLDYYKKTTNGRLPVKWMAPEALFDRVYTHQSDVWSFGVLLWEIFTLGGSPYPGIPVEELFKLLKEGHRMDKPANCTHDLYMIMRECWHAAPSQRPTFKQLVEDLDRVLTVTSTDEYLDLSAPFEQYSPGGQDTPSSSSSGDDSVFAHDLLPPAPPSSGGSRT

SH2 binding enrichment (Grb2 SH2)	SH2 binding enrichment (SHP2-C SH2)	SH2 binding enrichment (c-Src SH2)	Sequence	phosphorylation enrichment (AncSZ)	phosphorylation enrichment (EPHB1)	phosphorylation enrichment (EPHB2)	phosphorylation enrichment (FGFR1)	phosphorylation enrichment (FGFR3)	phosphorylation enrichment (Fer (mouse))	phosphorylation enrichment (Fes)	phosphorylation enrichment (Fyn)	phosphorylation enrichment (Hck)	phosphorylation enrichment (Jak2)	phosphorylation enrichment (MERTK)	phosphorylation enrichment (c-Abl (mouse))	phosphorylation enrichment (c-Src)
1.08	0.755	2.71	KLKNAYEECLE [MYH7_Y1488_S1491C]	1.15	0.501	0.554	0.508	0.739	0.615	1.16	0.438	0.642	0.984	0.432	0.799	0.502
1.25	0.878	1.09	RHLREYPDLLN [DES_Y388_Q389P]	0.695	0.375	0.463	0.584	0.71	0.352	0.822	0.389	0.53	0.73	0.569	0.404	0.453
0.935	0.618	0.523	SVVGPYEPPEV [TP53_Y220_V218G]	1.14	0.579	0.526	0.432	0.69	0.498	1.05	0.403	0.505	0.855	0.409	0.728	0.441
0.872	0.859	0.764	YLAATYPTLGQ [NF1_Y2508_V2511L]	0.779	0.331	0.663	0.824	0.642	0.677	0.773	0.433	0.633	0.754	0.742	0.774	0.637
0.761	0.527	0.467	IRTDAYVRAMT [RPE65_Y89]	0.515	0.438	0.458	0.444	0.482	0.398	0.605	0.463	0.414	0.481	0.402	0.522	0.382
0.686	0.508	0.546	EFGRRYGFSRQ [CCDC93_Y209_YF]	0.621	0.427	0.416	0.43	0.432	0.338	0.634	0.449	0.422	0.607	0.499	1.42	0.492

The remaining lines, values behind:

Sequence	SH2 binding enrichment (Grb2 SH2)	SH2 binding enrichment (SHP2-C SH2)	SH2 binding enrichment (c-Src SH2)	phosphorylation enrichment (AncSZ)	phosphorylation enrichment (EPHB1)	phosphorylation enrichment (EPHB2)	phosphorylation enrichment (FGFR1)	phosphorylation enrichment (FGFR3)	phosphorylation enrichment (Fer (mouse))	phosphorylation enrichment (Fes)	phosphorylation enrichment (Fyn)	phosphorylation enrichment (Hck)	phosphorylation enrichment (Jak2)	phosphorylation enrichment (MERTK)	phosphorylation enrichment (c-Abl (mouse))	phosphorylation enrichment (c-Src)
FKGIVYAVSSD [DCX_Y70]	0.809	0.825	0.535	0.86	0.416	0.49	0.424	0.505	0.428	0.916	0.484	0.391	0.802	0.371	0.629	0.49
EVNETYVPKEF [ALB_Y521_D518N]	0.759	0.501	0.404	1.19	0.584	0.543	0.524	0.796	0.518	1.26	0.564	0.534	1.19	0.477	0.851	0.523
GGMAKYTRLHN [EHHADH_Y4_E3K]	1.12	1.42	1.43	0.492	0.351	0.458	0.39	0.398	0.343	0.542	0.318	0.343	0.641	0.407	0.491	0.334
QLCVNYPGGFT [PROS1_Y259_YF]	0.73	0.613	0.538	1.45	0.792	0.697	0.698	0.904	0.692	1.61	0.675	0.85	0.907	0.552	0.835	0.37
RLLVVYPGTQR [HBB_Y36_W38G]	1.48	1.27	1.05	0.918	0.539	0.683	0.544	0.703	0.42	0.984	0.484	0.526	0.836	0.512	0.739	0.48
VAVTKYCKEEF [ATP7B_Y1078_L1083F]	0.862	0.598	0.501	0.887	0.605	0.568	0.563	0.624	0.487	1.05	0.459	0.458	0.959	0.357	0.707	0.462
DNEAIYDICRR [TUBA4A_Y210]	0.613	0.546	0.516	2.79	4.07	4.97	0.671	0.843	10.7	1.45	8.6	7.21	1.03	5.98	16.1	5.7
NEANKYQISVN [FGB_Y368]	0.763	0.717	0.481	0.691	0.39	0.411	0.372	0.459	0.369	0.816	0.435	0.391	0.654	0.371	0.592	0.425
ADLVQYYMEHH [PTPN11_Y80_E76D]	0.796	0.919	0.714	1.18	1.16	0.806	1.04	1.18	0.464	1.12	0.668	0.967	0.914	0.642	0.751	0.84
QLPATCMNLGP [MST1R_Y1360_Y1360C]	0.822	0.439	0.539	1.29	0.668	0.683	0.615	0.913	0.621	1.2	0.817	0.554	1.14	0.533	1.06	0.632
